Experiment: soluble on expression in E. coli; label from the status in PepcDB or PDB records

| Sequence | soluble on expression in E. coli |
| --- | --- |
| GDLSNYFSNLSRLNCPQTIMTFRLFDPGFPFTDIEVNADIVLDRDAEKLPENWLQQLTGLSDTDVSMTAKGNVLSGQFLLPDFNLKLQDKSHAYLLLQGMDLEEVLRIQPQIGIYANGLFDGVLPVDLVDGKVSISGGQLAARAPGGLIAISGNPAVDQMRQSQPYLDFVFSALEHLAYSQLSSSFDMDNTGDATLLVEVKGRSQGIERPIHLNYSHEENMLQLFRSLQIGNDLQNRIEK | not soluble |
| GFIDSHVHLFGGSVELDCLSLYGVKGLDAMRAAIQPYAQANPDDALVFCVMADYDILGTGHTLTRHDLDSILADRPLAMFAPDHHTVWANTAALEATGLLQGGEVDAGSLIVLGEDGLANGELLEPGAYGPILGLTRHGGREMLGLTTGKDPEPPATPDQRARDKDVIARGLAHCAAQGITGLHLMDGNRYQLELLTELEAEGRLLCRCEVPFHMKGTDPVERMTAEAPAMRAAYRGDKVRCNHLKMFIDGVIESGTALMLRPYPGELGANDNTGDEVFTQEHFTACCVEADRLGFQIAVHAIGDAGVRRTIDAFEAARRANGTRDSRHRIEHIEVIHPDDIPRLAELDIVASLQPGHAPRGHVFPPGAVGQYLHPDQIVGAYAWQTIRETGARVVFSTDWPVIPVDVMPSLRAAIAPLDLGPDWPDQSQSLMDTLASYTRDNAWVEFNEDSKGRLKVGMAADIAVLSHDLTALAPDDITQAAAMVTIMDGAVTY | not soluble |
| GGQFIAFLRNITERKRAEALHRMGQDILLALNENEDMKEAIQRVLGLLRSATGVDAVGIRLQDGDDFPYFYQEGFPPDFLQKEDSIVARNKDGGVCRDSCGNVCLECTCGMVISGSTDHANPLFTPGGSAWTNDSFPYLEVPADQDPRTTPRDECIHQGYASIALIPIRAKGRIVGLLQLNDRRKGRFTREGIEALEDIAKNIGEAMLRKQAEEKLVASERFLRMLTNQLPGMVGYWDRD | not soluble |
| GGSGERKISRIHLVSEPSITHFLQVSWEKTLESGFVITLTDGHSAWTGTVSESEISQEADDMAMEKGKYVGELRKALLSGAGPADVYTFNFSKESCYFFFEKNLKDVSFRLGSFNLEKVENPAEVIRELICYCLDTTAKNEKSIDDLEEKVAHAKEENLNMHQMLDQTLLELNNM | soluble |
| GGSVLAERAGIDPTAILRDFDRGRTSTLPDGRTLREWDIVAVDKDFEIAPGIIFKGWSYNGRIPGPTLWAREGDALRIHFTNAGAHPHTIHFHGVHRATMDGTPGIGAGSIAPGQSFTYEFDATPFGTHLYHCHQSPLAPHIAKGLYGGFIVEPKEGRPPADDEMVMVMNGYNTDGGDDNEFYSVNGLPFHFMDFPVKVKQHELVRIHLINVLEYDPINSFHIHGNFFHYYPTGTMLTPSEYTDTISQVQGQRGILELRFPYPGKFMFHAHKTEFAELGWMGFFEVSA | soluble |
| GGVVLRVVTVLEEPFVMVSENVLGKPKKYQGFSIDVLDALSNYLGFNYEIYVAPDHKYGSPQEDGTWNGLVGELVFKRADIGISALTITPDRENVVDFTTRYMDYSVGVLLRRGTSIQSLQDLSKQTDIPYGTVLDSAVYQHVRMKGLNPFERDSMYSQMWRMINRSNGSENNVLESQAGIQKVKYGNYAFVWDAAVLEYVAINDPDCSFYTVGNTVADRGYGIALQHGSPYRDVFSQRILELQQSGDMDILKHKWWPKNGQCDL | soluble |
| GHHHHHHAIAENLYFQSDLFETSQIEKLLESLENYQPAFPDALVRYYLAKSGFQTDDIRAERLVALAAQKFVADVANDALNHVKLRQQSQATSKKSKENEVILTVEDLSKALEEYGVHLKKPPYYVDSPVVGVGSANLKKRKTEQVTSVKPEEKSLEGKEVFKEEPKEEDKELTQEPENV | soluble |
| GHHHHHHAIAENLYFQSKFLDVECLSELQRKLNDLELTDYRVRCQLEAYSCKPAGFDKKLSKSLEQKLVEQLEASPRVLEGSPVGSLEDQSARKTLINLICTLNAAHQDYDFSSLQLSRLKRVQDVRSLQQHVDSLFELFYRQLGLEFRQFLWENIGQIIRPEECEVYSYLPDYESDPYSASGALWSFCYFFYHKNMKKILFFSCTLSTRLAEDSESTESVDEEDFGKESSGLETPFAMFETVI | not soluble |
| GHHHHHHAIAENLYFQSNSHDGSNFSNKFSAHKDVVEDLLRKDTVGLVTFQDFRARREYLERCAVAEAACQNASRRAEELETKKKRVKRANLSRLSFGDSLEDQEENSVEFAKITRFASSKKANGVGFNTSGQDIVKEPDVFSPKEEGFFGKQNRKIGMDPGVDTSFLPDRDREQEERLERERLKQQWLSEQERVKNEEIDIIYSIWDGRGQRKLLSCKKGTTIAKFLSIVQQKVSTLKHCKVEDLMFIKEDMIIPHHLSFYDLISMKARGKNGSLFCFDVHEDIRIRNDASVEKDDSHAAKVVERRWYERNKHIYPASMWEVFDVSKNYGRVQKDFFGN | not soluble |
| GHMDVGERSSDQGTTVLTEAQRIDWMRLIRAENVGPRTFRSLINHFGSARAALERLPELARRGGAARAGRIPSEDEARREIEAGRRIGVELVAPGETGYPTRLATIDDAPPLLGVHALPEALAVMARPMIAIVGSRNASGAGLKFAGQLAADLGAAGFVVISGLARGIDQAAHRASLSSGTVAVLAGGHDKIYPAEHEDLLLDIIQTRGAAISEMPLGHVPRGKDFPRRNRLISGASVGVAVIEAAYRSGSLITARRAADQGREVFAVPGSPLDPRAAGTNDLIKQGATLITSASDIVEAVASILERPIELPGREPEHAPPEGEPDTGDRTRILALLGPSPVGIDDLIRLSGISPAVVRTILLELELAGRLERHGGSLVSLS | soluble |
| GHMIQESTMEMTNAQRLILSNQYKMMTMLDPANAERYRRLQTIIERGYGLQMRELDREFGELKEETCRTIIDIMEMYHALHVSWSNLQDQQSIDERRVTFLGFDAATEARYLGYVRFMVNVEGRYTHFDAGTHGFNAQTPMWEKYQRMLNVWHACPRQYHLSANEINQIINA | soluble |
| GHMLWARLVGLARLEARALSKKERRSLLERLKPYYTRIPFSEKADLRLVKARTDSGEYEIITVDGVPCLFEWSDGRIYPTLQCLKAFGVDWLKGVVLVDKGAAIALAKGAHLMIPGVVGVEGSFTRGDVVAALYHETRTPVMVGVAEVDSSALEKLYREKARGRAVRRVHRLGDALWELAQEVGKRLSGS | soluble |
| GHMSGFKHVSHVGWDPQNGFDVNNLDPDLRSLFSRAGISEAQLTDAETSKLIYDFIEDQGGLEAVRQEMRRQ | soluble |
| GHVLLLRPVRSEDVEPLQGVFALMGPQEIRERFAPSATGSSERFQQLTNPNAKREIVLVAAEQLPPGEAMIAALARASIVPNSRHAEYIILVSSFVSGQGLGRQLLRKLVKWARGKYLDHLYGDILERNRPMLELAESLGFQRESHPESPDLVRMTLKL | not soluble |
| GIDPFTRDGPLVLIGSGLSSEQQKMLSELAVILKAKKYTEFDSTVTHVVVPGDAVQSTLKCMLGILNGCWILKFEWVKACLRRKVCEQEEKYEIPEGPRRSRLNREQLLPKLFDGCYFYLWGTFKHHPKDNLIKLVTAGGGQILSRKPKPDSDVTQTINTVAYHARPDSDQRFCTQYIIYEDLCNYHPERVRQGKVWKAPSSWFIDCVMSFELLPLDS | soluble |
| GISVDKRIEQATSDFLAAAQAIDLQEHLISGYRSVDYQTELYQSYIKKEMANDPTLTQEAAEALVQTYSQPPGASEHHTGLAIDMSTVDTLNASDPSVAKAVQKIAPDYGFVLRFPEGKKTSTGVDYEDWHYRYVGKASARYMAQHNLTLEEYIAALKEKR | not soluble |
| GKPFYYDVNFNLADSRAYITKYENPKGLLGDYYVGKEIGEIWGVETLGFFTSEEDIKNHADQSWCTSYPGTRPLAPGDLKFKDENKDGKITDGAWTLEDHGDYKIIGNSRARYTFGLSANAQWNGFDLSLFAQGVGKKDYYPGTGDLYFWGIYAQPWTNITKGNMYDHWTEENPDAYFPRMKAYVAENTDRECGVVQTRYLQNAAYMRLKNLTVGYTLPKVLLNKIGIERLRIFFSGDNLCEFSGLYKHYKVDPESLGNIVYPLQRSYSFGLNVTF | not soluble |
| GKVEERWTKTTDGKQMLSWVIYPVNFDANKKYPTLLFCEGGPQSPVSQFWSYRWNFQIMAANDYIIIAPNRRGLPGFGMEWLEQISGDYGGQCMKDYLSAIDDISKEPYVDTNRLGCVGASFGGFSVYWLAGHHDKRFKAFIAHDGIFNMEQQYLETEEMWFANWDMGGAYWDKNNATAQRTFANSPHRFVDKWDTPILCIHGEKDYRILASQGMSAFNAAVLRGVPAELLLYPDENHWVLKPQNGVLWQRTFFSWLDKWLK | not soluble |
| GLLAFFMVIAVSVGGLTQIVPLFFQDVTNKPVEGMKPRTALEVEGRDIYIREGCVGCHSQMIRPFRAETERYGHYSVAGESVWDHPFLWGSKRTGPDLARVGGRYSDDWHRAHLYNPRNVVPESKMPSYPWLVENKLDGKDTAKKMEVLRTLGTPYTDADIAGARDAVKGKTEMDAIVAYLQGLGT | not soluble |
| GMAINIIEYNRSYKEELIEFILSIQKNEFNIKIDRDDQPDLENIEHNYLNSGGQFWLAINNHQNIVGTIGLIRLDNNMSALKKMFVDKGYRNLKIGKKLLDKVIMTCKEQNIDGIYLGTIDKFISAQYFYSNNGFREIKRGDLPSSFPKLDVDNRFYYRNLKD | soluble |
| GMARLKNLPQERPLPLASLIEARENQVLSMALAQSDRVQISLFSFADGESVSEEEYFGDTLYLILQGEAVITFDDQKIDLVPEDVLMVPAHKIHAIAGKGRFKMLQITLIDEER | soluble |
| GMASAIIETAIPQSEMTASATSEEGQDPASSAIDGNINTMWHTKWNGSDALPQSLSVNLGKARKVSSIAITPRTSGNNGFITKYEIHAINNGVETLVAEGTWEENNLVKTVTFDSPIDAEEIKITAIQGVGGFASIAELNVYE | soluble |
| GMCVEKTPWELVIDFHGHTCPDIALGYRIAQLAQREMGIRPAPDSECLVKAYTQSCALDAIQVLNKATIGRHALIIEETHRYMYQFHFTGTQDIHQFTVSPAVLDHLETLRHPDLSPRERQNKVLEGVQYVLTLEESAFCHYDKIPGQLSKIV | soluble |
| GMDKYLSANSLEGVIDNEFSMPAPRWLNTYPAGPYRFINREFFIIAYETDPDLLQAILPPDMELLEPVVKFEFIRMPDSTGFGDYTESGQVVPVRYKGEEGGFTISMFLDCHAPIAGGREIWGFPKKLAKPKLFVEEDTLIGILKYGSIDIAIATMGYKHRPLDAEKVLESVKKPVFLLKNIPNVDGTPLVNQLTKTYLTDITVKGAWTGPGSLELHPHALAPISNLYIKKIVSVSHFITDLTLPYGKVVADYLA | soluble |
| GMEGSLSRGVEIMKLRELVARSRSIRRFDEHVAVNDATLRDLVELVCYTPSAANRQLLRFLPVTGADMSDKVFPCLKWAGYLEDWPGPEPGERPAAALVMLCRNEDLPGAACDSGIAAQTIMLGAAEKELGGCIVAAIDRERLMASLGIPDAWTVLLVIALGKPAETVVIDQIKPGDDIRYWRDKHGIHHVPKRQVDELLVTAEQLRERG | soluble |
| GMEPTRKRKSAGGKPKGKGGWGDRKSGGWRGDHKPSKEGFGGKTRGEGFKKEGFKRDGFKKTGEGFKGKRKAGDSFAGKGERRYKDR | not soluble |
| GMHLKEKITTIIQGQRTGVLSTVRNDKPHSAFMMFFHEDFVLYVATDRQSKKITDIENNPNVHVLLGREGKKLDEDYIEVEGLASIEEDSTLKNKFWNNSLKRWLLRPEDPNYVLIKINPDTIYYIDGAGTTEPEFLRL | soluble |
